Results published in patent US20200362021A1 (PHANES THERAPEUTICS, published 2020).
Residue numbers refer to the chain shown, from its start. No end group written: not given here. *: point of attachment. Biotin = O=C1N[C@H]2[C@H](CS[C@H]2CCCCC(=O)*)N1

T1: pyr-apelin-13-biotin (pE-RPRLSHKGPMPF-biotin) (N-terminal pyroglutamate (pE); C-terminal biotin)
T1 construct: also called pyrAPL13-Biotin
T1 peptide: ERPRLSHKGPMPF

T2: Biotin-APL17
T2 peptide: Biotin-KFRRQRPRLSHKGPMPF

T3: APL17-Biotin
T3 peptide: KFRRQRPRLSHKGPMPF-biotin

B1: anti-apelin mAb C11 (antibody, V domains shown)
VH: QSLEESGGRLVSPGGSLTLTCTVSGIDLSSHAMDWVRQAPGKGLEWIGVIAPNDATYYPTWARGRFTISKTSTTVGLKMTRLTTEDTATYFCAAYPIDAGANVWGPGTLVTVSS
VL: DPMLTQTASPVSAHVGGTVTINCQSSESVDYNNQLSWYQQKPGQPPKRLMYYVSTLDSGVPSRFKGSGSGTQFSLTISDLECDDAGTYYCQGGYISNLYPFGGGTEVVVK
notes: recombinant rabbit IgG made in HEK293 cells
B2: anti-apelin mAb C16 (antibody, V domains shown)
VH: QSLEESGGRLVTPGGSLTLTCTVSGIDLNSYAMDWVRQAPGKGLEWIGVIAPNHYTYYPTWARGRFTISKTSTTVDLKMTRLTTEDTATYFCATYPIESGSNIWGPGTLVIVSS
VL: B1 VL with M3V, A8P, P10S, H14A, N22G, D30G, Y31M
notes: as for B1
B3: anti-apelin mAb C20 (antibody, V domains shown)
VH: B2 VH with S30N, M33I, Y57C, R81S, T94A, S99T
VL: B1 VL with A8P, P10S, H14A, N22S, Y31M, T71I, Q72H, D83A
notes: as for B1
B4: anti-apelin mAb C22 (antibody, V domains shown)
VH: B2 VH with S30N, R81S, S99T
VL: DPVLTQTPSSVSAAVGGTVTISCQSSESVDMNNQLSWYHQKSGQPPKRLMYYVSTLDSGVPSRFKGSGSGTQFTLTISGVQCDDAGTYYCQGGYISNLYPFGGGTEVVVK
notes: as for B1
B5: anti-apelin mAb C14 (antibody, V domains shown)
VH: B1 VH with L3P, S12T, T22K, V23I, I26V, S30N, H31Y, F66L, G76D, A99V
VL: B1 VL with H14A
notes: as for B1
B6: anti-apelin mAb C10 (antibody, V domains shown)
VH: QSLEESGGRLVTPGGSLTLTCTVSGIDLNSYAIDWVRQAPGKGLEWIGVIAPSGTTYYPTWAKGRFTISKTSTTVDLKVTGLTTEDTATYFCAAYPIDPGSNIWGPGTLVTVSS
VL: DPVLTQTPSSVSAAVGGTATIGCQSSESVDYGNQLSWYQQKPGQPPKRLAYYVSILDAGVPSRFKGSGSGTQFTLTISDLECDDAATYYCQGGYISNLYPFGGGTEVVVQ
notes: as for B1
B7: anti-apelin mAb C12 (antibody, V domains shown)
VH: QSLEESGGRLVTPGGSLTLTCTVSGIDLSSYAIDWVRQAPGKGLEWIGVIAPSSTTYYPTWAKGRFTISKTSSTTVDLKVIGLTTEDTATYFCAAYPIDPGSNVWGPGTLVTVSS
VL: B6 VL with A19V, A50T
notes: as for B1
B8: anti-apelin mAb C27 (antibody, V domains shown)
VH: QSVEESGGRLVTPGGSLTLTCTVSGIDLINAWMNWVRQAPGKGLEWIGTTTDDDTIYYANWAKGRFTISRTSTTVDLKVTSLTSEDTATYFCSKGRIWGPGTLVTVSL
VL: QVLTQTPASVSAAVGGTVTINCQASQSVYDGNWLCWYQQKPGQPPKRLIYKASTLESGVPSRFKGSGSGTQFTLTISDLECDDAATYYCQGGFTSNIYPFAGGTEVVVK
notes: as for B1
B9: anti-apelin mAb C4 (antibody, V domains shown)
VH: LEQSGGGAEGGLVKPGGSLELCCKASGFTLSSSYWICWVRQAPGKGLEWIGCIHYGSSGTAYYASWVNGRFTLSRDIDQSTGCLQLNSLTAADTAMYYCARFLSDMYYYNLWGPGTLVTVSS
VL: QVLTQTPASVSAAVGGTVTINCQASQSIYNNNQLSWYQQKPGQPPKLLIYYASTLASGVSSRFKGSGSGTQFTLTISGVQCDDAATYYCQGQFNCRSADCHAFGGGTEVVVK
notes: as for B1
B10: anti-apelin mAb C9 (antibody, V domains shown)
VH: QEQLEESGGDLVKPEGSLTLTCTASGFSFSSSYWICWVRQAPGKGLEWIACIYQSGDGRTWYASWAEGRFTISKTSPTTVTLQMASLTAADTATYFCARCPHNTYSHFDLWGPSTLVTVSS
VL: DIVMTQTPASVEAAVGGTVTIKCQASQSINSWLSWYQQKPGQPPKPLIYGASNLASGVPSRFKGSGSGTQFTLTISDLECADAATYSCLGYYYSSYNSVGFWAFGGGTEVVVK
notes: as for B1
B11: C13 (antibody, V domains shown)
VH: QSLEESGGRLAKPGETLTLTCTVSGIDLNSHAVDWVRQAPGKGLEWIGVIGPGGNTYYASWAKGRFTISKTSSTTVDLKMTSLTAEDTATFFCATYPIYSGDNIWGPGTLVTVSS
VL: DPVLTQTPPSVSAAVGGTVTINCQSSESVDNNNQLSWYQQKVGQPPKRLMYYASTLDSGVPSRFKGGGSGTHFTLTITDLECDDAATYYCQGGTATNIYPFGGGTEVVVK
notes: recombinant rabbit mAb; also called anti-apelin mAb C13
B12: anti-apelin mAb C26 (antibody, V domains shown)
VH: QEQLEESGGGLVQPEGSLTLTCTASGFTLSNYWMSWVRQAPGKGLVWIGCIDIGSDDTYYASWAKGRFTISRTSSTTVTLQVTSLTAADTATYFCARSGGLWGPGTLVTVSS
VL: QVLTQTPSSTSAAVGGTVTINCQASQSVYNNNDLAWYQQKPGQPPKRLIYEASKLASGVPSRFSGSGSGTQFTLTISDLECDDAATYYCAGGWSGNFYVFGGGTEVVVK
notes: as for B1
B13: anti-apelin mAb C5 (antibody, V domains shown)
VH: QSVEESGGRLVTPGTPLTLTCTVSGFSLSGAWMNWVRQAPGKGLEWIGVVSSDDNIYYADWAKGRFTISKTSTTVDLKLTSPTTEDTATYFCARNLGTIWGPGTLVTVSS
VL: QVLTQTESPVSAAVGGTVTINCQSSQSVWSNYLSWFQQKPGQPPKVLIYGTSKLPSGVPSRFSGSGSGTEFTLTINDLECDDAATYYCAGGYSGHIYSFGGGTEVVVK
notes: as for B1
B14: anti-apelin mAb C17 (antibody, V domains shown)
VH: QSVEESGGRLVKPDETLTLTCAVSGIDLSSNAMNWVRQAPGEGLEWIGSMYTDGTTYYANWAKGRFTISRASSTTVDLKMTSLTAADTATYFCARGDIWGPGTLVTVSS
VL: QVLTQTASPVSAAVGGTVTISCQSSQSVYNNNWLAWFQQKPGQPPKRLIYGTSELASGVPSRFKGSGSGTQFTLTISGVQCDDAATYYCLGTYSSNIHVFGGGTEVVVK
notes: as for B1
B15: humanized anti-apelin mAb A11 (antibody, V domains shown)
VH: QSLEESGGGLVQPGGSLRLSCAVSGIDLYSNRMSWVRQAPGKGLEWVSSIGSSPWYASWAQGRFTISRDNSNTLYLQMNSLTAEDTAVYYCAKGGYRPGASVWGQGTLVTVSS
VL: DIQLTQSPSSLSASVGDRVTITCQSSQSIYDNNDLAWYQQKPGKTPKRLIYLASSLDSGVPSRFSGSGSGTDFTLTISSLQPEDVATYYCAGGYSGDIYTFGGGTKVEIK
notes: humanized from C8; tested as HEK293 supernatant
B16: humanized anti-apelin mAb A33 (antibody, V domains shown)
VH: B15 VH with S48G, L74V, V88T, Y90F
VL: AQVLTQSPSSLSASVGDRVTIACQSSQSVYDNNDLAWYQQKAGQTPKRLIYLASSLDSGVPSRFSGSGSGTEFTLTISSLQCEDVATYYCAGGYSGDIYTFGGGTEVVVE
notes: as for B15
B17: humanized anti-apelin mAb A43 (antibody, V domains shown)
VH: B15 VH with A22T, S48G, L74V, Q77K, L81P, V88T, Y90F
VL: B16 VL
notes: as for B15
B18: humanized anti-apelin mAb A41 (antibody, V domains shown)
VH: B15 VH with A22T, S48G, L74V, Q77K, L81P, V88T, Y90F
VL: B15 VL
notes: as for B15
B19: humanized anti-apelin mAb A21 (antibody, V domains shown)
VH: B15 VH with L74V, V88T, Y90F
VL: B15 VL
notes: as for B15

target: T4, apelin-13-biotin (…-biotin) (C-terminal biotin); assay: SPR (Biacore), apelin-13-biotin on streptavidin chip
T4 construct: also called APL13-Biotin
Description: (§1) Anti-apelin mAbs at four different concentrations (12.5 nM, 25 nM, 50 nM and 100 nM) were captured on the chip surface. The on- and off-rate for antibody-antigen binding were measured, curve fitted and calculated.

Row | Binder | Kd
1 | B1 | 39.3 pM
2 | B2 | 14300 pM
3 | B3 | 202 pM
4 | B4 | 107 pM
5 | B5 | 141 pM
6 | B6 | 6.46 pM
7 | B7 | 3.55 pM

Target: T1, pyr-apelin-13-biotin …
Assay: SPR (Biacore), pyr-apelin-13-biotin on streptavidin chip
Description: as §1

Row | Binder | Kd
8 | B1 | 0.141 pM
9 | B2 | 6140 pM
10 | B3 | 41.9 pM
11 | B4 | 0.155 pM
12 | B5 | 6.49 pM
13 | B6 | 0.0482 pM
14 | B7 | 0.0555 pM

Target: T2, Biotin-APL17
Assay: ELISA, peptide on neutravidin plate, mAb 200 ng/ml, A405
Description: (§2) FIGS. 1A-1C show binding of anti-apelin mAbs to various biotinylated apelin peptides measured by ELISA. Biotinylated apelin peptides were immobilized on ELISA plates coated with neutravidin and purified recombinant rabbit anti-apelin mAbs were added for binding to the peptides on the plates. The binding was detected by adding a goat anti-rabbit IgG Fc-conjugated to alkaline phosphatase and PNPP substrate, and measured as the absorbance at 405 nm.
(§3) For the binding assay, neutravidin in carbonate coating buffer was coated on high binding ELISA plates at 1 μg/ml overnight. Peptides were added at 4 μg/ml after the plates were blocked with 1% BSA in TBS. After incubation of the plates at room temperature for 60 minutes, the plates were washed and then purified recombinant rabbit antibodies were added at 200 ng/ml. Following rabbit antibody binding to the peptides on the plates at room temperature for 90 minutes, goat anti-rabbit IgG Fc-conjugated to alkaline phosphatase was added, and antibody-antigen binding was detected by adding PNPP substrate and reading absorbance of ELISA plates at 405 nm. Each mAb was assayed in duplicate.

Row | Binder | binding result
15 | B8 | binds
16 | B9 | binds
17 | B1 | binds
18 | B2 | no binding (tested: 200 ng/ml)
19 | B4 | binds
20 | B5 | binds
21 | B6 | no binding (tested: 200 ng/ml)
22 | B7 | no binding (tested: 200 ng/ml)
23 | B10 | binds
24 | B11 | binds

Target: T3, APL17-Biotin
Assay: as above
Description: as §2, §3

Row | Binder | binding result
25 | B9 | binds
26 | B1 | binds
27 | B2 | no binding (tested: 200 ng/ml)
28 | B4 | binds
29 | B5 | binds
30 | B6 | no binding (tested: 200 ng/ml)
31 | B7 | no binding (tested: 200 ng/ml)
32 | B10 | binds

Target: T1, pyr-apelin-13-biotin …
Assay: as above
Description: as §2, §3

Row | Binder | binding result
33 | B8 | no binding (tested: 200 ng/ml)
34 | B12 | no binding (tested: 200 ng/ml)
35 | B13 | no binding (tested: 200 ng/ml)
36 | B14 | no binding (tested: 200 ng/ml)
37 | B11 | binds

target: T5, biotin-apelin-13 (biotin-…) (N-terminal biotin); assay: SPR (Biacore), biotin-apelin-13 on streptavidin CM5 chip, mAb at 12.5-100 nM
T5 construct: also called Biotin-APL13
Description: as §1

Row | Binder | Kd
38 | B8 | 589 pM
39 | B12 | 119 pM
40 | B9 | 4010 pM
41 | B13 | 51300 pM
42 | B10 | 14800 pM
43 | B14 | 1060 pM

target: T5, biotin-apelin-13 (biotin-…); assay: SPR (Biacore) with biotin-apelin-13, humanized IgG1 mAb in HEK293 supernatant
From the text: The rabbit anti-apelin mAb C8 was humanized to reduce the potential of immunogenicity when used in human patients. The sequences of the variable regions of the heavy and light chains (VH and VL) were compared with the human antibody sequences in the Protein Data Bank (PDB) database and a homology model was built by applying SWISS-modeling. The CDRs in both the heavy and light chains of the rabbit mAb were grafted into human frameworks that have the highest possibility of maintaining the proper structure likely required for antigen binding. Backmutations from human residue to rabbit residue were designed when necessary. The sequences of the humanized VH and VL regions are shown in Table 11 and Table 12, respectively. The humanized VH and VL regions were fused to human IgG1 heavy chain and kappa light chain constant regions, respectively, to generate humanized mAbs. Constructs corresponding to the mAb sequences were used for transient transfection in HEK 293 cells and the supernatants were analyzed for the affinity of each humanized mAb for apelin.

Row | Binder | Kd
44 | B15 | 0.126 pM
45 | B16 | 0.0143 pM
46 | B17 | 3.26 pM
47 | B18 | 0.067 pM
48 | B19 | 0.00165 pM
